US20230038638A1, “COMPLEMENT FACTOR I-RELATED COMPOSITIONS AND METHODS” (published 2023)
Where a chain is given by its changes, count along the chain named.

How the values were obtained:
C4b = molecular target: T1, C4b (human, UniProt P0C0L4)
T1 sequence: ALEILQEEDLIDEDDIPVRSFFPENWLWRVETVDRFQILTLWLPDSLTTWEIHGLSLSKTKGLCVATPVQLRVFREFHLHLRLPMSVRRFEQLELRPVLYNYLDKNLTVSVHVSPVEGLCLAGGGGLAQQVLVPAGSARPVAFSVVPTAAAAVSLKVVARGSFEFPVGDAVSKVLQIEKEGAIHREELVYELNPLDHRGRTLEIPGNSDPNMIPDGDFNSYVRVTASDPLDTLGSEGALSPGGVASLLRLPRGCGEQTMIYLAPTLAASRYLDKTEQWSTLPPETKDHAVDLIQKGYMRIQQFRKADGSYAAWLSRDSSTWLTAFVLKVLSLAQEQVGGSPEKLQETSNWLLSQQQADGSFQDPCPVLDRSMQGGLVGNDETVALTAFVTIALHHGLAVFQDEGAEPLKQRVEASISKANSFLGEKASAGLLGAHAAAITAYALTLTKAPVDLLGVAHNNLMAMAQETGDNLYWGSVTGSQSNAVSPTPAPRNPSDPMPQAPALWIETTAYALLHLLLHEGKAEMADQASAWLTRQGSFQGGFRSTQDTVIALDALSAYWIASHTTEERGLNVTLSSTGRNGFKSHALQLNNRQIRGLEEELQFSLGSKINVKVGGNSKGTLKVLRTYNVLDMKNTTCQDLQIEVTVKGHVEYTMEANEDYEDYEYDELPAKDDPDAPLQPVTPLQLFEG

C3b [1] = molecular target: T2, C3b (human, UniProt P01024)
C3b [2] = molecular target: T2, C3b; remark: listed apart in the source
[3] = molecular target: soluble human C3b (human) (UniProt P01024)
human C4b (human) [4] = molecular target: T3, human C4b (human) (UniProt P0C0L5)
T3 sequence: T1 sequence with A151T, D317G, P364L, C365S, L368I, D369H, N420S, V451A, L454R, S530A

human C4b (human) [5] = molecular target: T4, human C4b (human) (UniProt P0C0L4)
T4 sequence: T1 sequence

[6] = molecular target: soluble human C3b (human) (UniProt P01024); remark: listed apart in the source
human C4b (human) [7] = molecular target: T4, human C4b (human); remark: listed apart in the source
human C4b (human) [8] = molecular target: T3, human C4b (human); remark: listed apart in the source

Row | C3b cleavage, % Activity (C3b [1]) | C3b cleavage rate, kmut/kwt (C3b [2]) | iC3b Screen Ref Fold (fold vs CFI-HSA wild type) [3] | C4b Screen Ref Fold (fold vs CFI-HSA wild type) (human C4b (human) [4]) | iC3b EC50 [6] | Substance | other results
1 |  |  |  |  |  | CFI-HSA variant Y408L; N531G; P535G with hCR1; CCP15; CCP16; CCP17 C-terminal fusion (enzyme) | C4c No Cofactor EC50 (C4b cleavage, C4c ELISA) (C4b): 50.1 nM
2 |  |  |  |  |  | CFI-HSA variant Y408L; N531G with hCR1; CCP15; CCP16; CCP17 C-terminal fusion (enzyme) | C4c No Cofactor EC50 (C4b cleavage, C4c ELISA) (C4b): 57.1 nM
3 | 11% |  |  |  |  | CFI-HSA variant 514-MDANNVT (SEQ ID NO: 13)-520 → NG (hTrypsin 200-loop swap) (enzyme) | 
4 |  |  |  |  |  | CFI-HSA variant N531G; P535A with hCR1; CCP15; CCP16; CCP17 C-terminal fusion (enzyme) | C4c No Cofactor EC50 (C4b cleavage, C4c ELISA) (C4b): 50.3 nM
5 |  |  |  |  |  | CFI-HSA variant E457G; E461Q; N531G with hCR1; CCP15; CCP16; CCP17 C-terminal fusion (enzyme) | C4c No Cofactor EC50 (C4b cleavage, C4c ELISA) (C4b): 77.6 nM
6 | 58% | 0 |  |  |  | CFI-HSA variant K326A + R327A (enzyme) | 
7 | 92% |  |  |  |  | CFI-HSA variant M220A + K221Q (enzyme) | 
8 | 79% |  | 0.43 | 0.09 |  | CFI-HSA variant E38A (enzyme) | 
9 |  | 1 |  |  |  | CFI-HSA variant S250A + D425R (enzyme) | 
10 | 91% | 1 | 0.79 | 2.85 | 39.2 nM | CFI-HSA variant L307G (enzyme) | C4c EC50 (nM) (human C4b (human) [5]): 316 nM
11 |  | 1 | 1.01 | 1.86 |  | CFI-HSA variant P535A (enzyme) | 
12 | 21% | 0 | 0.04 | 1.74 | > 500 nM | CFI-HSA variant R557A (enzyme) | iC3b Screen Ref Fold (fold relative to CFI-HSA wild type) [3]: -0.01; C4b Screen Ref Fold (fold relative to CFI-HSA wild type) (human C4b (human) [4]): 1.72; C4c EC50 (nM) (human C4b (human) [5]): 327 nM
13 |  | 1 | 1.21 | 0.31 | 24.3 nM | CFI-HSA variant N531A (enzyme) | C4c EC50 (nM) (human C4b (human) [5]): 278 nM
14 |  | 1 | 2.1 | 6.26 | 8.3 nM | CFI-HSA variant N531G (enzyme) | C4c EC50 (nM) (human C4b (human) [5]): 58.4 nM
15 | 18% | 0 |  |  |  | CFI-HSA variant 456-… (SEQ ID NO: 9)-465 --> … (SEQ ID NO: 10) (human trypsin autolysis loop swap) (enzyme) | 
16 |  | 1 |  |  |  | CFI-HSA variant E38A + D425R (enzyme) | 
17 | 7% |  | 0.05 | 0.14 |  | CFI-HSA variant Y20A (enzyme) | 
18 | -4% |  | 0.09 |  |  | CFI-HSA variant S250L (enzyme) | 
19 |  | 3 | 1.58 | 5.37 | 11.1 nM | CFI-HSA variant E457G (enzyme) | C4c EC50 (nM) (human C4b (human) [5]): 138 nM
20 |  | 2 | 1.94 | 5.47 | 12 nM | CFI-HSA variant E461Q (enzyme) | C4c EC50 (nM) (human C4b (human) [5]): 121 nM
21 | 106% |  |  |  |  | CFI-HSA variant E457G-E461Q-F464Y (enzyme) | 
22 | 47% |  | 0.12 | 0.06 |  | CFI-HSA variant R35A (enzyme) | 

Row | C3b cleavage, % Activity (C3b [1]) | C3b cleavage rate, kmut/kwt (C3b [2]) | iC3b Screen Ref Fold (fold vs CFI-HSA wild type) [3] | C4b Screen Ref Fold (fold vs CFI-HSA wild type) (human C4b (human) [4]) | iC3b EC50 [6] | Substance | other results
23 | 93% |  | 0.73 | 0.3 |  | CFI-HSA variant K14A (enzyme) | C4c EC50 (nM) (human C4b (human) [5]): 401 nM
24 | 0% |  |  |  |  | CFI-HSA variant S507A (active site mutant) (enzyme) | 
25 | 82% |  | 0.38 | 0.07 |  | CFI-HSA variant S250A (enzyme) | 
26 |  |  |  |  | 2.2 nM | CFI-HSA variant E457G; E461Q; N422K; T377G (enzyme) | C4b Screen Ref Fold (fold of CFI-HSA wild type) (human C4b (human) [7]): 4.28; iC3b Screen Ref Fold (fold of CFI-HSA wild type) [3]: 1.74; C4c EC50 (human C4b (human) [8]): 5 nM
27 |  |  |  |  | 4 nM | CFI-HSA variant D425R; P558S; E457G; E461Q; N531G (enzyme) | C4b Screen Ref Fold (fold of CFI-HSA wild type) (human C4b (human) [7]): 4.41; iC3b Screen Ref Fold (fold of CFI-HSA wild type) [3]: 1.29; C4c EC50 (human C4b (human) [8]): 4.6 nM
28 |  |  |  |  | 79.4 nM | CFI-HSA variant R557A; N531M; Y403F; K504Y; E457G; E461Q (enzyme) | C4b Screen Ref Fold (fold of CFI-HSA wild type) (human C4b (human) [7]): 3.97; iC3b Screen Ref Fold (fold of CFI-HSA wild type) [3]: 0.21; C4c EC50 (human C4b (human) [8]): 26.3 nM
29 |  |  |  |  | 288 nM | CFI-HSA variant R557A; N531M (enzyme) | C4b Screen Ref Fold (fold of CFI-HSA wild type) (human C4b (human) [7]): 2.91; iC3b Screen Ref Fold (fold of CFI-HSA wild type) [3]: 0.09; C4c EC50 (human C4b (human) [8]): 78.7 nM
30 | 7% |  | 0.03 | 0.11 |  | CFI-HSA variant ΔC-term (Δ558-PFISQYNV (SEQ ID NO: 14)-565) (enzyme) | 
31 |  | 1 |  |  |  | CFI-HSA variant Y20F + D425R (enzyme) | 
32 | 16% |  | 0.05 | 0.17 |  | CFI-HSA variant F29A (enzyme) | 
33 |  | 2 |  |  |  | CFI-HSA variant E457G + E461Q + R462K + F464Y (mouse CFI autolysis loop swap) (enzyme) | 
34 |  |  |  |  | 2.4 nM | CFI-HSA variant N531G; E461Q; N422K; T377G (enzyme) | C4b Screen Ref Fold (fold of CFI-HSA wild type) (human C4b (human) [7]): 4.24; iC3b Screen Ref Fold (fold of CFI-HSA wild type) [3]: 1.7; C4c EC50 (human C4b (human) [8]): 5 nM
35 | 104% | 1 | 1.4 | 1.46 | 21.3 nM | CFI-HSA variant Y408L (enzyme) | C4c EC50 (nM) (human C4b (human) [5]): > 1000 nM
36 |  |  |  |  | 3.5 nM | CFI-HSA variant E457G; N422K; T377G (enzyme) | C4b Screen Ref Fold (fold of CFI-HSA wild type) (human C4b (human) [7]): 4.25; iC3b Screen Ref Fold (fold of CFI-HSA wild type) [3]: 2.99; C4c EC50 (human C4b (human) [8]): 7.5 nM
37 |  |  |  |  | 4.1 nM | CFI-HSA variant N422K; E461Q (enzyme) | C4b Screen Ref Fold (fold of CFI-HSA wild type) (human C4b (human) [7]): 2.54; iC3b Screen Ref Fold (fold of CFI-HSA wild type) [3]: 2.67; C4c EC50 (human C4b (human) [8]): 51.1 nM
38 | 94% |  | 0.34 |  |  | CFI-HSA variant D26A (enzyme) | 
39 | 35% |  |  |  |  | CFI-HSA variant Δ(K1-P305) (HSA-SPD) (enzyme) | 
40 |  |  |  |  | 14.6 nM | CFI-HSA variant D425K; Y408M; K504R (enzyme) | C4b Screen Ref Fold (fold of CFI-HSA wild type) (human C4b (human) [7]): 0.1; iC3b Screen Ref Fold (fold of CFI-HSA wild type) [3]: 1.57; C4c EC50 (human C4b (human) [8]): > 1000 nM
41 | 105% | 1 | 1.34 | 0.42 |  | CFI-HSA variant D425K (enzyme) | C4b Screen Ref Fold (fold of CFI-HSA wild type) (human C4b (human) [7]): 2.86; iC3b Screen Ref Fold (fold of CFI-HSA wild type) [3]: 0.11
42 | 80% |  | 0.67 | 0.27 |  | CFI-HSA variant Y20F (enzyme) | 
43 |  |  |  |  | 9.4 nM | CFI-HSA variant D425K; Y408M (enzyme) | C4b Screen Ref Fold (fold of CFI-HSA wild type) (human C4b (human) [7]): 0.19; iC3b Screen Ref Fold (fold of CFI-HSA wild type) [3]: 1.88; C4c EC50 (human C4b (human) [8]): > 1000 nM
